According to publication PMC12630357 (The Journal of Biological Chemistry, 2025):

Molecular target: T1, 6xHis-CotV (Bacillus subtilis 168, UniProt Q08309 1-128)
T1 construct: CotV, spore coat (crust) protein of Bacillus subtilis strain 168; native ORF printed as 129 residues; residues 1-125 resolved in the model; Forms a helical filament; the number of copies is not fixed; also called 6xHis-tagged CotV; CotV1; source: E. coli BL21(DE3), coexpressed with CotW from pET-DUET, Ni-NTA purified as the CotVW complex; not shown: 6xHis (within an N-terminal extension of 14 …)
T1 sequence (looked up): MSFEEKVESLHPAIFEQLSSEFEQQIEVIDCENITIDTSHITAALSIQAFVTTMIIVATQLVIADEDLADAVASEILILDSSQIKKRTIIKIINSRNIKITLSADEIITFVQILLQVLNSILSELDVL
Assay: cryo-EM structure; helical reconstruction of 6xHis-tagged CotVW filaments, 3.32 Å; twist 153.09°, rise 9.52 Å, one CotV-CotW heterodimer per asymmetric unit
Settings: both partners purified

stoichiometry N: 1
B1: CotW (natural protein, Bacillus subtilis 168, UniProt Q08310 1-105, looked up)
chain: MSDNDKFKEELAKLPEVDPMTKMLVQNIFSKHGVTKDKMKKVSDEEKEMLLNLVKDLQAKSQALIENQKKKKEEAAAQEQKNTKPLSRREQLIEQIRQRRKNDNN
notes: CotW, spore coat (crust) protein of Bacillus subtilis strain 168; native ORF 105 residues; residues 18-98 resolved in the model; also called CotW1; CotW monomer; source: E. coli BL21(DE3), coexpressed with 6xHis-CotV from pET-DUET, co-purified on Ni-NTA as the CotVW complex; not shown: single added tyrosine, C-terminal, kept
